According to the domain aggregation screens of Martell et al. (2025):

Assay: soluble fraction after stress (log2 fold change); higher = more stays soluble; pooled small domains, quantitative proteomics
Settings: stress: 75 degC
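Also: 20 min heating vs room temperature control held 20 min.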

Sequence: HMGQYSTTLDKIENSLFGFTYSNEAENTRINRIENKVYGKTSTSQTSTRIAKLKKDLSVDEMG
- soluble fraction (log2): 0.111

Sequence: HMSLTGFYNLTFKQADRLSVIDEAGEEVYKQAIAMGSTTKTIDLSALNAGVYFIRIYNGEVIAQEKIVLN
- soluble fraction (log2): -0.933

Sequence: HMEDVTLSLVVGEDLDGERLDVFLTWKLDRTRSQVQALIRDGKVRLEQGQRARPSMVVRSGMGISVSLEPR
- soluble fraction (log2): -2.15

Sequence: HMKKLTGVQKAAILMIALGPDISSSIIKRLPENMVERITYEIANMTKITAQQRNDILKEFMDMTVAQ
- soluble fraction (log2): -3.64

Sequence: HMEKSLKELAQGVGQKVLTSGRPYHFDPMSAMERRVVHMTLMEMDGLRTESEGEGRFRHVVVFPA
- soluble fraction (log2): -0.0884

Sequence: HMRQIRELFRLKFGSLLPTSDRQIAAQLGVARSTVAEYLERARAAGLSWPLPLDLSDADLEERLFA
- soluble fraction (log2): -3.08

Sequence: HMSATVLVHVLGEVRKPGVVSLPEGSRVQDAITAAGGLTSRAKPGDLNLAARVSDGAQLVIGRSGSQVRTT
- soluble fraction (log2): -0.306

Sequence: HMEMELNHVARRAGRLSGFLKGELRLSTGLMNRLKWSNAILVNGKPARTNAQVEPGDRITVILD
- soluble fraction (log2): -2.35

Sequence: HMDFGHWAAHKLEQMSEYRLRHGEAVAIGIALDVLYSVRQGLLARPAAERILSLLERLGFTLFDPELKS
- soluble fraction (log2): 0.224

Sequence: HMSEKELTDLIERIKERRLKLEMSYQDLSDATGISKSTLQRYETGYIKKVPINQIEILAKALHTTPSYLMG
- soluble fraction (log2): -0.411

Sequence: HMQVSDTNTLEQFAKEVIEANPKAVEDYHQNPLAIGFLVGQLMKVSKGSANPQTGKEILEKLL
- soluble fraction (log2): -0.112

Sequence: HMDADRLSPREREMLQFIARGQSNKEIARALELAESTVKIHVQNMLRKLNLSSRVQAAVFAVENGLG
- soluble fraction (log2): -1.59

Sequence: HMIDAHTTLLAKRLESKGFLALTDKSSAEEIYEEFGISKKAFKKALGALYKERLVRIGEDGVVWM
- soluble fraction (log2): -1.67

Sequence: HMDGEMRRKRILQLLSEQTKPLSGTALAKQFGVSRQVIVQDIALLKSKEPAIISTYRGYVLGR
- soluble fraction (log2): -1.25

Sequence: HMGGGEYTVAKGDTLWKIAAQTLGSPTRYAEIYNLNKDVIEETARGRGKRDSSNGHWLFPGTALKIPGT
- soluble fraction (log2): 0.421

Sequence: HMGPEISEDAKVVFDRLKNHDEILLNNFKSEFDLSNKKWDKIIKELRGNDLISIIKSEDGNLFIKP
- soluble fraction (log2): -0.125

Sequence: HMQYDSYTVEEPAKLLDWLLAHLRQSRTKIKATLQGHGIKVNGKTVTQFDYPLEPGMKIRVSLTK
- soluble fraction (log2): -1.24

Sequence: HMAGLYSLLLVELPMERLPEDLPAIKAAWLKTGDTEAFKVALQAMSSRGWTIAVPGKHRDTQMTQL
- soluble fraction (log2): 0.259

Sequence: HMNSEERVLDTASKWLVKLDEGLDESEAQVLKVWLATPLHRDTFLEMVALWDKMSVLNELADIV
- soluble fraction (log2): -1.65

Sequence: HMGLWWTEAERELVKTTIEQLYKDTNIAEPVDSKNLRASIPALKAMRTGLSAENQARVDTLLGALQV
- soluble fraction (log2): -0.462

Sequence: HMEQVLDEEIIKSAVQKVIKDNPSAVSDYKAGKKTAFQFLIGKAMAELQGKGHPGKISELLEKE
- soluble fraction (log2): 0.474

Sequence: HMDERLLRLYERELQFLREGADEFAQAYPKVAGHLGLNSQSMGDPFIERLLEGLGFLTARIQLQLESEF
- soluble fraction (log2): -0.47

Sequence: HMELLPFEFARANRVLLRVNESDLVVSPDANHSAVTEILRLNNNIETIKSVDAEAFDKILSSIYSG
- soluble fraction (log2): -0.804

Sequence: HMGLVVIGTEAGYPAEKAGILAGDRIRKLNGAAVPDYDTFLTALAARKGEPSAIELERDGKTLEVTVSPL
- soluble fraction (log2): 0.105

Sequence: HMKPPTIELSYSEFIELVERGKVSKVIFSSDNYTLKGETVNGENFETVRPPFLEDNLSEILTIHKVPVSSE
- soluble fraction (log2): -0.109

Sequence: HMGHKKLTIELQDEIIVLPKELEKYNLTVSDDKTSLIYTYKSRGEKTGITDLLRDIKDAGLRLKDLITEQ
- soluble fraction (log2): 0.284

Sequence: HMQPAGEGAILRYLSSGAVKGIGPVMAREIVRRFGTDTFRVMEQEPEKLLKVKGITEQRLQTIMESYQD
- soluble fraction (log2): -0.198

Sequence: HMQPDPAFVAWVDANPWYKENRTLRALVHDYAEEVKRQEPALIGTAFLDRVKQLVQSEHPELFD
- soluble fraction (log2): -0.234

Sequence: HMVQARDQNIEEGRQLVLRELDRLDLVNESLTDVAADMNMKSVEDMYAAIGAGDLRVGQVVHAVLKRAD
- soluble fraction (log2): 0.0164

Sequence: HMEAQAHYDAIYKAHPNADSIAQSAEFKAWVDAQPSVVRNAYWQLFDPKEGGTAEQIVEVFDAFVKSS
- soluble fraction (log2): 0.327
